In patent US20200181261A1 (Bayer, published 2020):

Assays:
Assay in all cases: SPR, antibody captured, antigen as analyte
[1] = target: T1, Human CEACAM6-Domain 1-His (expressed in E. coli), wild-type (human)
T1 construct: entry includes the His tag; also called hDOM1
T1 chain: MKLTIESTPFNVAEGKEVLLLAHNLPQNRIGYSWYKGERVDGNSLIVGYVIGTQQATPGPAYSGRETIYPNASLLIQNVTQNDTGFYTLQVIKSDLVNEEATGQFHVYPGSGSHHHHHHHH
Experimental: (§1) Surface plasmon resonance (SPR) experiments for quantitative binding analyses were performed either using a Biacore T100, Biacore T200 or a Biacore 4000 instrument (GE Healthcare Biacore, Inc.) equipped with Series S Sensor Chips CM5 (GE Healthcare Biacore, Inc.). Binding assays were carried out at 25° C. with assay buffer HBS-EP+(10 mM HEPES pH 7.4, 150 mM NaCl, 3 mM EDTA, 0.05% Surfactant P20). Antibodies were captured with an anti-hIgG capture antibody covalently immobilized to the chip surface via amine coupling chemistry. Reagents for amine coupling (1-ethyl-3-(3-dimethylaminopropyl) carbodiimide hydrochloride (EDC), N-hydroxysuccinimide (NHS), ethanolamine-HCl pH 8.5) were used from the Amine Coupling Kit (GE Healthcare, product code BR-1000-50). Anti-hIgG, anti-mIgG capture antibodies and immobilization buffer (10 mM sodium acetate pH 5.0) were used from the Human Antibody Capture Kit (GE Healthcare, BR-1008-39) and the Mouse Antibody Capture Kit (GE Healthcare, BR-1008-38), respectively. The sensor chip surface was activated with a freshly prepared solution of 0.2 M EDC and 0.05 M NHS passed over the chip surface for 420 s at a flow rate of 10 μl/min, followed by an injection of anti-hIgG or anti-mIgG capture antibody (dissolved to 25 μg/ml in immobilization buffer) for 180 s at a flow rate of […]. Excess of activated groups were blocked with a 1 molar solution of ethanolamine injected at a flow rate of 10 μl/min for 420 s.
(§2) CEACAM antigens were used as analyte to determine KD values. Antibodies were captured for 20 s at a flow rate of 10 μl/min prior to each analyte injection.

[2] = target: T2, Macaca fascicularis CEACAM6-Domain 1-His (expressed in E. coli) (Macaca fascicularis)
T2 construct: entry includes the His tag; also called TPP-2453; Recombinant single domain 1 of Macaca fascicularis CEACAM6
T2 chain: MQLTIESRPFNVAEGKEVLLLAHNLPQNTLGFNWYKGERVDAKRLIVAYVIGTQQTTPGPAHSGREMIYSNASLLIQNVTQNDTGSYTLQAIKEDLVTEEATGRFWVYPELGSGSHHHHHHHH
Experimental: as §1, §2

[3] = target: T3, human CEACAM6, extracellular (mature form), R&D Systems 3934-CM (human, UniProt P40199 35-320)
T3 construct: used biotinylated in some assays; also called TPP-1436; Recombinant human CEACAM6
T3 sequence: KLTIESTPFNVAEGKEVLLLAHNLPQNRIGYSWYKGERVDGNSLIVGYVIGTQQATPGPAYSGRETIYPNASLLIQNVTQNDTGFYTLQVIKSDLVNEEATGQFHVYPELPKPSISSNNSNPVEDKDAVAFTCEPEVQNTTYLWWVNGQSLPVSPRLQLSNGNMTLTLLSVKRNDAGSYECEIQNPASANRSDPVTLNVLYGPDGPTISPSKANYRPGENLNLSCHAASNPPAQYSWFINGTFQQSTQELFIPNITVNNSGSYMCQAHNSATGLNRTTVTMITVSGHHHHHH
Experimental: as §1, §2
(§3) Obtained sensorgrams were double-referenced, i.e. in-line reference cell correction followed by buffer sample subtraction.

[4] = target: T4, human CEACAM5, extracellular (mature form), R&D Systems 4128-CM (human, UniProt P06731 35-685)
T4 construct: used biotinylated in some assays; also called TPP-1438; hC5
T4 sequence: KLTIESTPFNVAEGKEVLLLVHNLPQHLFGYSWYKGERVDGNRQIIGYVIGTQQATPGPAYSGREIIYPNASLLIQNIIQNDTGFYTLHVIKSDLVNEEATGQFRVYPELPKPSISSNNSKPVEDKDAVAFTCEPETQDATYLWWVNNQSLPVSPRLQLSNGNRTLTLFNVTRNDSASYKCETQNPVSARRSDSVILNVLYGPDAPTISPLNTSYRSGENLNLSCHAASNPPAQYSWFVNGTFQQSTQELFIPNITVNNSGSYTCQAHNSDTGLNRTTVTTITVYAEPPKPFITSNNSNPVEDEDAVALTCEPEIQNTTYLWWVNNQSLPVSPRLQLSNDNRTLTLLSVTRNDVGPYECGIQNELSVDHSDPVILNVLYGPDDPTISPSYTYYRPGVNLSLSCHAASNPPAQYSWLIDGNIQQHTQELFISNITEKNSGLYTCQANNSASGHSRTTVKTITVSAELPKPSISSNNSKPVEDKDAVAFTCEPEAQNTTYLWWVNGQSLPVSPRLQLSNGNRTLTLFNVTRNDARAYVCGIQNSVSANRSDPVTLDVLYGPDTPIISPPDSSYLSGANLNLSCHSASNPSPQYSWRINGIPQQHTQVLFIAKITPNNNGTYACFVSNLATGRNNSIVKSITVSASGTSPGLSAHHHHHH
Experimental: as §1, §2, §3

[5] = target: T5, human CEACAM3, extracellular (mature form), Sino Biological Inc. 11933-H08H (human, UniProt P40198 35-155)
T5 construct: used biotinylated in some assays; also called TPP-2755
T5 sequence: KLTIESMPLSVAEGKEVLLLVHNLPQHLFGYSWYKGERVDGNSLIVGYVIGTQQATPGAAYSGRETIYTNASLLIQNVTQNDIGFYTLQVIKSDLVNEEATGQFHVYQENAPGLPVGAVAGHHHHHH
Experimental: as §1, §2, §3

[6] = target: T6, Macaca fascicularis CEACAM6, extracellular (mature form), obtained by Factor Xa cleavage of TPP-2443 (Macaca fascicularis)
T6 construct: used biotinylated in some assays; also called APP-319; Cynomolgus CEACAM6
T6 chain: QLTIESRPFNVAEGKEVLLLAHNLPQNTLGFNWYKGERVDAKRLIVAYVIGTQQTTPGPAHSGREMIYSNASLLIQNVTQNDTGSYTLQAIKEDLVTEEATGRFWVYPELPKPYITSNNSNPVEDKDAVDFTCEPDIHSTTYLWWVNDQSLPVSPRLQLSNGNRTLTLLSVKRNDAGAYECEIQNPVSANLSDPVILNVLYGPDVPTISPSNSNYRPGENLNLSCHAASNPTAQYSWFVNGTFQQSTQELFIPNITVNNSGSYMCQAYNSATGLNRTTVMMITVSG
Experimental: as §1, §2, §3

Kd [1]: 3.7 nM
Kd [2]: 3.2 nM
Kd [3]: 13 nM
binding result [4]: no binding (tested: 200 nM)
binding result [5]: no binding (tested: 200 nM)
Kd [6]: 27 nM
B1: TPP-3714 (antibody, human IgG2, kappa)
heavy: QVTLRESGPALVKPTQTLTLTCTFSGFSLSTYGIGVGWIRQPPGKALEWLAHIWWNDNKYYSTSLKTRLTISKDTSKNQVVLTMTNMDPVDTATYYCARISLPYFDYWGQGTLVTVSSASTKGPSVFPLAPCSRSTSESTAALGCLVKDYFPEPVTVSWNSGALTSGVHTFPAVLQSSGLYSLSSVVTVPSSNFGTQTYTCNVDHKPSNTKVDKTVERKCCVECPPCPAPPVAGPSVFLFPPKPKDTLMISRTPEVTCVVVDVSHEDPEVQFNWYVDGVEVHNAKTKPREEQFNSTFRVVSVLTVVHQDWLNGKEYKCKVSNKGLPAPIEKTISKTKGQPREPQVYTLPPSREEMTKNQVSLTCLVKGFYPSDIAVEWESNGQPENNYKTTPPMLDSDGSFFLYSKLTVDKSRWQQGNVFSCSVMHEALHNHYTQKSLSLSPG
light: DIQLTQSPSFLSASVGDRVTITCKASQNVGTAVAWYQQKPGKAPKLLIYSASNRYTGVPSRFSGSGSGTEFTLTISSLQPEDFATYYCQQYSSYPLTFGGGTKVEIKRTVAAPSVFIFPPSDEQLKSGTASVVCLLNNFYPREAKVQWKVDNALQSGNSQESVTEQDSKDSTYSLSSTLTLSKADYEKHKVYACEVTHQGLSSPVTKSFNRGEC
notes: humanized from TPP-2971, human IgG2; also called TPP-2971HU2-hIgG2Kappa
